Experimental data reported in patent US20260070987A1.

B1: equine IgG1 D312N (antibody, part only; not given: variable domains, not shown: another chain or arm of the molecule)
constant: ASTTAPKVFALAPGCGTTSDSTVALGCLVSGYFPEPVKVSWNSGSLTSGVHTFPSVLQSSGFYSLSSMVTVPASTWTSETYICNVVHAASNFKVDKRIEPIPDNHQKVCDMSKCPKCPAPELLGGPSVFIFPPNPKDTLMITRTPEVTCVVVDVSQENPDVKFNWYMDGVEVRTATTRPKEEQFNSTYRVVSVLRIQHQNWLSGKEFKCKVNNQALPQPIERTITKTKGRSQEPQVYVLAPHPDELSKSKVSVTCLVKDFYPPEINIEWQSNGQPELETKYSTTQAQQDSDGSYFLYSKLSVDRNRWQQGTTFTCGVMHEALHNHYTQKNVSKNPGK
B2: equine IgG1 D312P (antibody, part only; not given: variable domains, not shown: another chain or arm of the molecule)
constant: ASTTAPKVFALAPGCGTTSDSTVALGCLVSGYFPEPVKVSWNSGSLTSGVHTFPSVLQSSGFYSLSSMVTVPASTWTSETYICNVVHAASNFKVDKRIEPIPDNHQKVCDMSKCPKCPAPELLGGPSVFIFPPNPKDTLMITRTPEVTCVVVDVSQENPDVKFNWYMDGVEVRTATTRPKEEQFNSTYRVVSVLRIQHQPWLSGKEFKCKVNNQALPQPIERTITKTKGRSQEPQVYVLAPHPDELSKSKVSVTCLVKDFYPPEINIEWQSNGQPELETKYSTTQAQQDSDGSYFLYSKLSVDRNRWQQGTTFTCGVMHEALHNHYTQKNVSKNPGK
B3: equine IgG1 D312S (antibody, part only; not given: variable domains, not shown: another chain or arm of the molecule)
constant: ASTTAPKVFALAPGCGTTSDSTVALGCLVSGYFPEPVKVSWNSGSLTSGVHTFPSVLQSSGFYSLSSMVTVPASTWTSETYICNVVHAASNFKVDKRIEPIPDNHQKVCDMSKCPKCPAPELLGGPSVFIFPPNPKDTLMITRTPEVTCVVVDVSQENPDVKFNWYMDGVEVRTATTRPKEEQFNSTYRVVSVLRIQHQSWLSGKEFKCKVNNQALPQPIERTITKTKGRSQEPQVYVLAPHPDELSKSKVSVTCLVKDFYPPEINIEWQSNGQPELETKYSTTQAQQDSDGSYFLYSKLSVDRNRWQQGTTFTCGVMHEALHNHYTQKNVSKNPGK
B4: equine IgG1 D312Q (antibody, part only; not given: variable domains, not shown: another chain or arm of the molecule)
constant: ASTTAPKVFALAPGCGTTSDSTVALGCLVSGYFPEPVKVSWNSGSLTSGVHTFPSVLQSSGFYSLSSMVTVPASTWTSETYICNVVHAASNFKVDKRIEPIPDNHQKVCDMSKCPKCPAPELLGGPSVFIFPPNPKDTLMITRTPEVTCVVVDVSQENPDVKFNWYMDGVEVRTATTRPKEEQFNSTYRVVSVLRIQHQQWLSGKEFKCKVNNQALPQPIERTITKTKGRSQEPQVYVLAPHPDELSKSKVSVTCLVKDFYPPEINIEWQSNGQPELETKYSTTQAQQDSDGSYFLYSKLSVDRNRWQQGTTFTCGVMHEALHNHYTQKNVSKNPGK
B5: equine IgG1 D312V (antibody, part only; not given: Variable domains, not shown: another chain or arm of the molecule)
constant: ASTTAPKVFALAPGCGTTSDSTVALGCLVSGYFPEPVKVSWNSGSLTSGVHTFPSVLQSSGFYSLSSMVTVPASTWTSETYICNVVHAASNFKVDKRIEPIPDNHQKVCDMSKCPKCPAPELLGGPSVFIFPPNPKDTLMITRTPEVTCVVVDVSQENPDVKFNWYMDGVEVRTATTRPKEEQFNSTYRVVSVLRIQHQVWLSGKEFKCKVNNQALPQPIERTITKTKGRSQEPQVYVLAPHPDELSKSKVSVTCLVKDFYPPEINIEWQSNGQPELETKYSTTQAQQDSDGSYFLYSKLSVDRNRWQQGTTFTCGVMHEALHNHYTQKNVSKNPGK
B6: equine IgG1 D312T (antibody, part only; not given: Variable domains, not shown: another chain or arm of the molecule)
constant: ASTTAPKVFALAPGCGTTSDSTVALGCLVSGYFPEPVKVSWNSGSLTSGVHTFPSVLQSSGFYSLSSMVTVPASTWTSETYICNVVHAASNFKVDKRIEPIPDNHQKVCDMSKCPKCPAPELLGGPSVFIFPPNPKDTLMITRTPEVTCVVVDVSQENPDVKFNWYMDGVEVRTATTRPKEEQFNSTYRVVSVLRIQHQTWLSGKEFKCKVNNQALPQPIERTITKTKGRSQEPQVYVLAPHPDELSKSKVSVTCLVKDFYPPEINIEWQSNGQPELETKYSTTQAQQDSDGSYFLYSKLSVDRNRWQQGTTFTCGVMHEALHNHYTQKNVSKNPGK

These binders were tested against equine FcRn (large alpha subunit p51) / equine beta-2-microglobulin complex, biotinylated (equine) (UniProt P30441) (assay: SPR (Biacore), pH 6).
Chain of UniProt P30441 (P30441 21-118, one chain of several): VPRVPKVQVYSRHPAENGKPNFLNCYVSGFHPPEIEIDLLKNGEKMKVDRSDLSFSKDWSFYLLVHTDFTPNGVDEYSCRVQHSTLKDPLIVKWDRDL

| Binder | Kd [nM] |
| --- | --- |
| B1 | 22.3 |
| B2 | 8.88 |
| B3 | 16.7 |
| B4 | 46 |
| B5 | 8.32 |
| B6 | 20.3 |
